Measured values from patent US20120114557A1.

What was measured:
[1] = target: human collagen type I (human) (UniProt P02452); assay: dried collagen assay, chelate conjugate
[2] = target: rat collagen type I (rat) (UniProt P02454); assay: dried collagen assay, chelate conjugate
Sequence of rat collagen type I (rat) (P02454 152-1207, chain 1 of 2): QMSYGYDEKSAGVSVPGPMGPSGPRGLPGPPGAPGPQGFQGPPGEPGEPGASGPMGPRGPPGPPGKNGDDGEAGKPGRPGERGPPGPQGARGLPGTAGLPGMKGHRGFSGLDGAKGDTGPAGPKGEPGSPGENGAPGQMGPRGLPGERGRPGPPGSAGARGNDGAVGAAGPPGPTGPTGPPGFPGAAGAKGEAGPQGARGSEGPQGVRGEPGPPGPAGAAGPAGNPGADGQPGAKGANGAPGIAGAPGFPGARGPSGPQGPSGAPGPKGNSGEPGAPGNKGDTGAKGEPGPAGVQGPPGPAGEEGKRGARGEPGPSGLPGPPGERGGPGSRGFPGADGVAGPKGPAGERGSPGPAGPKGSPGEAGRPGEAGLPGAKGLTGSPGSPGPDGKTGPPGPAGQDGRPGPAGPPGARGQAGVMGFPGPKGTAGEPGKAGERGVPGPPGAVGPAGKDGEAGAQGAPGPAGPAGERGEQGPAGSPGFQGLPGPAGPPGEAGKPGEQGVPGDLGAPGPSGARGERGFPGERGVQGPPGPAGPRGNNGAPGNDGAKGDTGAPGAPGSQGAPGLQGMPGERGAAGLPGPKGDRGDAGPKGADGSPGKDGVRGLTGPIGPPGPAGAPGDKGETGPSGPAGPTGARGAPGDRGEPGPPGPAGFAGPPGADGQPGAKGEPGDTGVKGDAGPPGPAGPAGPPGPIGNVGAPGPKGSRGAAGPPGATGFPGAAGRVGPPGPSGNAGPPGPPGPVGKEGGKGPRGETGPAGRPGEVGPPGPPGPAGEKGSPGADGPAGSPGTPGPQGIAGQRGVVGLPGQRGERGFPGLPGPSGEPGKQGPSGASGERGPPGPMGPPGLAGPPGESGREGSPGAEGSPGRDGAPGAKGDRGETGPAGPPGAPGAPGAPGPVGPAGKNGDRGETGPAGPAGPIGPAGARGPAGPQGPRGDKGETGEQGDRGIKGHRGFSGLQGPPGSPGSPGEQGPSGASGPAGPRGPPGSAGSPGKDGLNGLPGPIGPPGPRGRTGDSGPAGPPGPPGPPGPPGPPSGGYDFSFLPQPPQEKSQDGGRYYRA
Sequence of rat collagen type I (rat) (P02466 86-1125, chain 2 of 2, further chain): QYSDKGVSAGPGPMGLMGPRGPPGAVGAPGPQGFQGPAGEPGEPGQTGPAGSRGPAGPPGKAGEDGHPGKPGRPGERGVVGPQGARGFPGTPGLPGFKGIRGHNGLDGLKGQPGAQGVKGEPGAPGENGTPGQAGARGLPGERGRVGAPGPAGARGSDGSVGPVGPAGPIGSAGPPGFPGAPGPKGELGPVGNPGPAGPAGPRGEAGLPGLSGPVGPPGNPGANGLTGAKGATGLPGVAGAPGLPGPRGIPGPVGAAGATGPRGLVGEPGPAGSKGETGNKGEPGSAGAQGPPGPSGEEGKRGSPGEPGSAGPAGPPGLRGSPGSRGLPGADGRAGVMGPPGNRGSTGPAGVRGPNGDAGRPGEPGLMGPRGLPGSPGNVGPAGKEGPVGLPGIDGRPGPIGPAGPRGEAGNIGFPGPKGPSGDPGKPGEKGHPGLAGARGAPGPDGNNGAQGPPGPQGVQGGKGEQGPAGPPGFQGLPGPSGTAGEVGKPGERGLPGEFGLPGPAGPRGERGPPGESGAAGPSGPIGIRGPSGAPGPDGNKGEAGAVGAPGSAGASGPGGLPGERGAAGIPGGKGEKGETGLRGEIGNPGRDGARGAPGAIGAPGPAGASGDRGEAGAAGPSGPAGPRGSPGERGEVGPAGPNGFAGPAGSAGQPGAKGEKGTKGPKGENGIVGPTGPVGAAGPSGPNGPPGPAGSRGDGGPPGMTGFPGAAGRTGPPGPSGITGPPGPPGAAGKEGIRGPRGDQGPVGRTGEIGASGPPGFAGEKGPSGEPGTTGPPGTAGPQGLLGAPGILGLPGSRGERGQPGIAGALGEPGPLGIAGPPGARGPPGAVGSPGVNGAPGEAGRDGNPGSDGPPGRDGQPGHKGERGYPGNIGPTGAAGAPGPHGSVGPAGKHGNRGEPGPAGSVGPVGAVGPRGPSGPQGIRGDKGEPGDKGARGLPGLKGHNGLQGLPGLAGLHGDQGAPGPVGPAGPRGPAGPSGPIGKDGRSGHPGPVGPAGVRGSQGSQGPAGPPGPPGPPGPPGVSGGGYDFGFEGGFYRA

Sequence of human collagen type I (human) (P02452 162-1218 limits assumed, chain 1 of 2): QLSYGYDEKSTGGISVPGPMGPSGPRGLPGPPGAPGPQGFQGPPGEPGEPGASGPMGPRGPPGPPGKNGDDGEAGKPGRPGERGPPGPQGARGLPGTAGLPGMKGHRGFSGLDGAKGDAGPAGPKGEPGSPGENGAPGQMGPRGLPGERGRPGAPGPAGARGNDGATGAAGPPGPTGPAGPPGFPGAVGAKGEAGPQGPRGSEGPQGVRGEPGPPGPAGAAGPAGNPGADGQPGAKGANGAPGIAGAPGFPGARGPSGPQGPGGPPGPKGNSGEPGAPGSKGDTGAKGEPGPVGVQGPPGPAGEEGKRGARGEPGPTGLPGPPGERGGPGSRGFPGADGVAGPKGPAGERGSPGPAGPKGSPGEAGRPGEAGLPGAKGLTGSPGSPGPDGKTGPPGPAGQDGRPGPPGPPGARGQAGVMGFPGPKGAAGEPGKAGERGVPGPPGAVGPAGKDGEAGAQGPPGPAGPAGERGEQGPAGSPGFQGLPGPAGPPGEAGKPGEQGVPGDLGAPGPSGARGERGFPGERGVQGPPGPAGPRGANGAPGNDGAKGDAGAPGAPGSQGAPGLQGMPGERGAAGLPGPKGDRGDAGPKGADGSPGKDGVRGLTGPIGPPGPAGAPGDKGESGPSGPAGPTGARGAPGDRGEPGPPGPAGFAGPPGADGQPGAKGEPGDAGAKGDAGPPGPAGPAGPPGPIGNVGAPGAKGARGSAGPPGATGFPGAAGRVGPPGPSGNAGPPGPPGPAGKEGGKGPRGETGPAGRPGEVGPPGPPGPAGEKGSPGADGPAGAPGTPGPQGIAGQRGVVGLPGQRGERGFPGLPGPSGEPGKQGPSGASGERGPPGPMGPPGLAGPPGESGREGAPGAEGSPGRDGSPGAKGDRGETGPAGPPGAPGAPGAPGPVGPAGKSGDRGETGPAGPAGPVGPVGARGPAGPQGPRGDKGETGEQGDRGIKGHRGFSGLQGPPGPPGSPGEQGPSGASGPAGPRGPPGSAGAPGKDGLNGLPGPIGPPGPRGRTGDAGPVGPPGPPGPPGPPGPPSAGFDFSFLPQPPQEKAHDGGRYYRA
Sequence of human collagen type I (human) (P08123 80-1119 limits assumed, chain 2 of 2, further chain): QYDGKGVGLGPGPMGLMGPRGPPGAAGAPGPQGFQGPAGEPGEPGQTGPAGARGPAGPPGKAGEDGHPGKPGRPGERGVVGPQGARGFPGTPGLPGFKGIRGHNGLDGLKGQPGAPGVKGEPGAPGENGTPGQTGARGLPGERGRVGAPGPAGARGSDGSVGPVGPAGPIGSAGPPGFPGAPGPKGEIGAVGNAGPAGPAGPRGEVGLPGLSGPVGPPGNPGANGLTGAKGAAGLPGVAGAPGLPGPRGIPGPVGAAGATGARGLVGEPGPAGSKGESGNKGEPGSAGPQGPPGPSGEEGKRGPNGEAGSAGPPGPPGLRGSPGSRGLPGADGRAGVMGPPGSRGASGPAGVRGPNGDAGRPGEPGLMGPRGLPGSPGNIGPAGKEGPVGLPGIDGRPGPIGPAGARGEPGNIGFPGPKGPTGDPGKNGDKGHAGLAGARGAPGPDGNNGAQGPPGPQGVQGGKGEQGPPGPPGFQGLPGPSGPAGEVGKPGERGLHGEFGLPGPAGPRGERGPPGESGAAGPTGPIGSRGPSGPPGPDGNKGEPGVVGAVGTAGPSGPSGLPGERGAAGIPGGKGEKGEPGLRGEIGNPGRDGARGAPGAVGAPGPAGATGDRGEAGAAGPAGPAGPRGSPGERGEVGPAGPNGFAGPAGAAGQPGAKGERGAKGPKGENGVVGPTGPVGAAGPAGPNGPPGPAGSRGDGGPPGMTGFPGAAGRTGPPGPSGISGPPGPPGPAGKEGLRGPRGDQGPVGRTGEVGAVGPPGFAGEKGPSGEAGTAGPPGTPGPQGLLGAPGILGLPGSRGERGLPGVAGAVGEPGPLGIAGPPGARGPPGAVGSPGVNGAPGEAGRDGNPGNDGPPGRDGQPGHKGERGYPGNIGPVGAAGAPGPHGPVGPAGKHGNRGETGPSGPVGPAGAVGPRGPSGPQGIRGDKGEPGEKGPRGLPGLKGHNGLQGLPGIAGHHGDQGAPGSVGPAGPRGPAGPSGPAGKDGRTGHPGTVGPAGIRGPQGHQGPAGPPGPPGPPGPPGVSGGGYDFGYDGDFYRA

% Binding Collagen I, Human [1]: 28%
% Binding Collagen I, Rat [2]: 5%
Substance: Glu-DTPA-Gd-PEG(20)-G-Q-W-T-C-S-G-D-E-Y-T-W-H-C-N-Y-e (peptide)
